Experimental findings from article doi:10.1101/2022.03.31.486616 are described below.

In this experiment the target is E. cloacae Cap2 (C109A/C548A), catalytically dead (E. cloacae). Description: cryo-EM structure.

Usually stoichiometry N stands for the number of molecules, sites or subunits per partner or assembly. “E. cloacae Cap2 (C109A/C548A), catalytically dead (enzyme)” came in with a stoichiometry N of 2.
